Test results: publication PMC12697855, “Distinct Phage‐Encoded Enzymes for Substitution of Deoxythymidine by Deoxyuridine in Phage Genomes” (Advanced Science, 2025)

How the values were obtained:
Dcd_PhiR1‐37 = tested on: T1, Dcd_PhiR1‐37; assay: UV absorbance at […] nm, deamination; format: biochemical, Yersinia phage phiR1-37; settings: Mg2+ (table; methods text says 2 mM Mn2+), 50 mM Tris-HCl pH 7.5, room temperature; read-out: kinetic parameters
T1 construct: gene Dcd; recombinant from codon-optimized synthetic gene in HMT plasmid, N-terminal His6-MBP tag, amylose column, E. coli

Dtt_PhiR1‐37 = tested on: T2, Dtt_PhiR1‐37; assay: phosphomolybdate phosphate release, coupled inorganic pyrophosphatase IPP1; format: biochemical, Yersinia phage phiR1-37; settings: 2 mM Mg2+, 50 mM Tris-HCl pH 7.5, room temperature; read-out: kinetic parameters
T2 construct: gene Dtt; recombinant from codon-optimized synthetic gene in HMT plasmid, N-terminal His6-MBP tag, amylose column, E. coli
Description: phosphomolybdate phosphate release, coupled inorganic pyrophosphatase IPP1 on Dtt_PhiR1‐37

Dcd_PBS1 = molecular target: T3, Dcd_PBS1 (Bacillus phage PBS1, UniProt A0A223LD31); assay: inhibition of dCTP deamination (details in supplement); format: biochemical; settings: inhibitor (negative regulation); also the reaction product
T3 construct: gene 112; recombinant from codon-optimized synthetic gene in HMT plasmid, N-terminal His6-MBP tag, amylose column, E. coli
T3 sequence (A0A223LD31 1-176): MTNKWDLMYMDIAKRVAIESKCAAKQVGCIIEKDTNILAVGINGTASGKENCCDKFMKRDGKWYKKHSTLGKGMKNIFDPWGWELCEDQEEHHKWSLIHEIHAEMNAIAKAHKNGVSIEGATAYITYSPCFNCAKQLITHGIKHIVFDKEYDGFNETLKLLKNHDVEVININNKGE

purified protein [1] = substrate: Nc1ccn([C@H]2C[C@H](O)[C@@H](COP(=O)(O)O)O2)c(=O)n1; assay: purified protein; format: biochemical, Exiguobacterium artemiae; settings: Co2+ is best metal (methods text for kinetics says 2 mM Mn2+), 50 mM Tris-HCl pH 7.5, room temperature
purified protein [2] = substrate: Nc1ccn([C@H]2C[C@H](O)[C@@H](COP(=O)(O)OP(=O)(O)O)O2)c(=O)n1; assay: purified protein; format: biochemical, Exiguobacterium artemiae; settings: Co2+ is best metal (methods text for kinetics says 2 mM Mn2+), 50 mM Tris-HCl pH 7.5, room temperature
purified protein [3] = substrate: Nc1ccn([C@H]2C[C@H](O)[C@@H](COP(=O)(O)OP(=O)(O)OP(=O)(O)O)O2)c(=O)n1; assay: purified protein; format: biochemical, Exiguobacterium artemiae; settings: Co2+ is best metal (methods text for kinetics says 2 mM Mn2+), 50 mM Tris-HCl pH 7.5, room temperature
purified protein [4] = substrate: Nc1ccn([C@H]2C[C@H](O)[C@@H](COP(=O)(O)O)O2)c(=O)n1; assay: purified protein; format: biochemical, Sulfurimonas gotlandica; settings: 2 mM Mn2+, 50 mM Tris-HCl pH 7.5, room temperature
purified protein [5] = substrate: Nc1ccn([C@H]2C[C@H](O)[C@@H](COP(=O)(O)OP(=O)(O)O)O2)c(=O)n1; assay: purified protein; format: biochemical, Sulfurimonas gotlandica; settings: 2 mM Mn2+, 50 mM Tris-HCl pH 7.5, room temperature
purified protein [6] = substrate: Nc1ccn([C@H]2C[C@H](O)[C@@H](COP(=O)(O)OP(=O)(O)OP(=O)(O)O)O2)c(=O)n1; assay: purified protein; format: biochemical, Sulfurimonas gotlandica; settings: 2 mM Mn2+, 50 mM Tris-HCl pH 7.5, room temperature
[7] = substrate: Cc1cn([C@H]2C[C@H](O)[C@@H](COP(=O)(O)O)O2)c(=O)[nH]c1=O; assay: phosphomolybdate phosphate release; format: biochemical, Bacteriophage DSS3_VP1; settings: 2 mM Co2+, 50 mM Tris-HCl pH 7.5, room temperature
Description: (§1) phosphomolybdate phosphate release on Dtm_DSS3_VP1

[8] = substrate: O=c1ccn([C@H]2C[C@H](O)[C@@H](COP(=O)(O)O)O2)c(=O)[nH]1; assay: phosphomolybdate phosphate release; format: biochemical, Bacteriophage DSS3_VP1; settings: 2 mM Co2+, 50 mM Tris-HCl pH 7.5, room temperature
Description: as §1

purified protein [9] = substrate: Nc1ccn([C@H]2C[C@H](O)[C@@H](COP(=O)(O)OP(=O)(O)OP(=O)(O)O)O2)c(=O)n1; assay: purified protein; format: biochemical, Bacillus phage PBS1; settings: 2 mM Mn2+, 50 mM Tris-HCl pH 7.5, room temperature
purified protein [10] = substrate: Nc1ccn([C@H]2C[C@H](O)[C@@H](COP(=O)(O)O)O2)c(=O)n1; assay: purified protein; format: biochemical, Bacteriophage DSS3_VP1; settings: 2 mM Mn2+, 50 mM Tris-HCl pH 7.5, room temperature
purified protein [11] = substrate: Nc1ccn([C@H]2C[C@H](O)[C@@H](COP(=O)(O)OP(=O)(O)O)O2)c(=O)n1; assay: purified protein; format: biochemical, Bacteriophage DSS3_VP1; settings: 2 mM Mn2+, 50 mM Tris-HCl pH 7.5, room temperature
purified protein [12] = substrate: Nc1ccn([C@H]2C[C@H](O)[C@@H](COP(=O)(O)OP(=O)(O)OP(=O)(O)O)O2)c(=O)n1; assay: purified protein; format: biochemical, Bacteriophage DSS3_VP1; settings: 2 mM Mn2+, 50 mM Tris-HCl pH 7.5, room temperature
[13] = substrate: Cc1cn([C@H]2C[C@H](O)[C@@H](COP(=O)(O)O)O2)c(=O)[nH]c1=O; assay: phosphomolybdate phosphate release; format: biochemical, Bacillus phage PBS1; settings: Mg2+ (table; methods text says 2 mM Co2+), 50 mM Tris-HCl pH 7.5, room temperature
Description: phosphomolybdate phosphate release on Dtm_PBS1

`Nc1ccn([C@H]2C[C@H](O)[C@@H](COP(=O)(O)OP(=O)(O)OP(=O)(O)O)O2)c(=O)n1` [dCTP] gave a Km (Dcd_PhiR1‐37) of 117 ± 31 µM.

With `O=c1ccn([C@H]2C[C@H](O)[C@@H](COP(=O)(O)OP(=O)(O)OP(=O)(O)O)O2)c(=O)[nH]1` [dUTP] the Km (Dtt_PhiR1‐37) was 145 ± 16 µM and the “inhibition of dCTP deamination (details in supplement)” value (Dcd_PBS1) was “Bacillus phage PBS1 Dcd is negatively regulated by dUTP (Figure S9, Supporting Information)”.

`Nc1nc2c(ncn2[C@H]2C[C@H](O)[C@@H](COP(=O)(O)OP(=O)(O)OP(=O)(O)O)O2)c(=O)[nH]1` [dGTP] was tested, and the Km (Dtt_PhiR1‐37) was 440 ± 110 µM.

Molecule `Cc1cn([C@H]2C[C@H](O)[C@@H](COP(=O)(O)OP(=O)(O)OP(=O)(O)O)O2)c(=O)[nH]c1=O` [dTTP] has a Km (Dtt_PhiR1‐37) of 108 ± 11 µM.

B1: E. sibiricum cytidine nucleotide deaminase (Exiguobacterium artemiae 255-15) (protein)
chain: MMKKQHQWDTTWLLFARMMADRHSKCASKSVACVIVKDEKPISIGINGTPSQHVNCNEIYLKQDNILYKAEAERQQEKADALSIVHNGQVFYRCDNQEEHHEWSKMNEIHAEINALGKLAADSTSARHATAYVTHSPCHACSLALIASKIDRVVYSTGYEYGDGLTLMRQSEIEVLHRPLTEEYFLERIFDKDL
notes: recombinant from codon-optimized synthetic gene in HMT plasmid, N-terminal His6-MBP tag, amylose column, E. coli
For B1, the Km (purified protein [1]) was 415 ± 143 µM, the kcat (purified protein [1]) was 0.05 ± 0.01 s⁻¹ and the Km (purified protein [2]) was 179 ± 31 µM. The kcat (purified protein [2]) was 21.2 ± 1.9 s⁻¹, the Km (purified protein [3]) was 186 ± 35 µM and the kcat (purified protein [3]) was 0.9 ± 0.1 s⁻¹.

B2: S. gotlandica cytidine nucleotide deaminase (Sulfurimonas gotlandica GD1) (protein)
chain: MLSDQNFINIAQELATASKCVSKQVGAVIVKDGRILSTGYNGTPAGFTNCCDHWNGEYTPDHHEWSKTYEIHAEMNAIIWAARKGISIEGASIFVTLEPCSECSKNLIASGIKRIVYAKEYEHTHSDTISKFIKDNGVSIEQLAPKV
notes: as for B1
With B2 the Km (purified protein [4]) was 661 ± 178 µM, the kcat (purified protein [4]) was 0.28 ± 0.05 s⁻¹ and the Km (purified protein [5]) was 271 ± 90 µM. For the same molecule, the kcat (purified protein [5]) was 0.5 ± 0.1 s⁻¹, the Km (purified protein [6]) was 293 ± 88 µM and the kcat (purified protein [6]) was 0.06 ± 0.01 s⁻¹.

B3: Dtm_DSS3_VP1 (Bacteriophage DSS3_VP1) (protein)
chain: MCNEKIALGYELYTSGYVNRYHSHPHPHLRNAQDLTDAHSNRMVKLLYLFFPELAHRGTLVAYIVMHDAGESASGDSPFTAKIANPKLKEALDEVEGQRLAQFYGLFQNDLRIDLTQKEENVVKLLDLLESFLFQAIHAPGRMDEEHHLFQNIEKRARELEVYPEVRCMMMHALHRNNAATKGY
notes: as for B1
In the case of B3, the Km [7] is reported as 22 ± 4 µM, the kcat [7] is reported as 3.1 ± 0.1 s⁻¹ and the Km [8] is reported as 170 ± 15 µM. For the same molecule, the kcat [8] was 1 ± 0.1 s⁻¹.

B4: Dcd_PBS1 (Bacillus phage PBS1) (protein)
chain: MTNKWDLMYMDIAKRVAIESKCAAKQVGCIIEKDTNILAVGINGTASGKENCCDKFMKRDGKWYKKHSTLGKGMKNIFDPWGWELCEDQEEHHKWSLIHEIHAEMNAIAKAHKNGVSIEGATAYITYSPCFNCAKQLITHGIKHIVFDKEYDGFNETLKLLKNHDVEVININNKGE
notes: as for B1
Work on B4 yielded a Km (purified protein [9]) of 137 ± 23 µM and a kcat (purified protein [9]) of 15.4 ± 1 s⁻¹.

B5: Dcd_DSS3_VP1 (Bacteriophage DSS3_VP1) (protein)
chain: MHSWDKRFMEMAELVASWSKDPRTKVGCVLADSKHRVLGVGYNGFPRGVNDRDDRYANREVKLAMVKHAEENAVFNAAKHDLSDAVAYVTLAPCSSCAGTLIQAGVRRVVFPEPDPEHMTRHYGNYELMLQMLSEARVLKSVITKEGVIK
notes: as for B1
Work on B5 yielded a Km (purified protein [10]) of 257 ± 55 µM, a kcat (purified protein [10]) of 1 ± 0.1 s⁻¹ and a Km (purified protein [11]) of 144 ± 44 µM. It also gave a kcat (purified protein [11]) of 5.6 ± 0.8 s⁻¹, a Km (purified protein [12]) of 114 ± 22 µM and a kcat (purified protein [12]) of 8.9 ± 0.7 s⁻¹.

B6: Dtm_PBS1 (Bacillus phage PBS1) (protein)
chain: MFSIKEPFSIVTDCDEVLTDISPLWVHKIQQNADYFGKYFDLSKLEGLEFGTFEHYQTVLSRPEFHLNKWLRKENLVLSDEEEKELFERFYSLYDNDEFYEDCMPTKMCEGIYKLSLQKFVDKIYVVTRTSEGTKEGKRKFIETFLNSNKVEIIFVGKNEKKSDYIKNLKNVKMIVEDELSNINDIVENCNDGFEEVDIYIPSTGYNNKDIDGFNENLMKKGFNAVPYVIIERPETEEKAV
notes: recombinant from pCold TF, E. coli BL21(DE3), N-terminal His6-Trigger factor-TEV site tag, Ni-NTA; tag kept
With B6 the Km [13] was 42 ± 8 µM and the kcat [13] was 0.0317 ± 0.0017 s⁻¹.
